These results are taken from patent US20220135977.

This data set deals with Influenza A/H3N2 virus strain Ark1819002 (clade 3C.2a; virus protein quantified as hemagglutinin) (Influenza A virus (H3N2)) (UniProt P03437+P03437). Description: filter.

Read-outs that look alike come from different tables or passages of the source.

In turn, “GGAGCUCAGCCUUCACUGCCAAAAAGUUAGGCCAGCAAAUUGCGAGCUGAUCCGGUGACUGGCUACAGGAGGCCUUGUCCACGGCCGUAUUGGCACCACCGUCGGAUCC [D26(2'-F)]” registered a binding signal (2'-F pyrimidines) of 32.8 amol bound.

As to “GGAGCUCAGCCUUCACUGCCAAAGUGCGAGGCAGUGUGGUGCUGUCCUACGAGUUCUAAAGUUCGUUAGGAAGGCAGCUCAACAUGUUUAACAGGCACCACCGUCGGAUCC [D12]”, the binding signal worked out at 0.1 amol bound.

For the sequence “GGGAGAAUUCCGACCAGAAGGAACAUUUGUGGGUGGUGUGGGUGGCUGUUCCUUUCCUCUCUCCUUCCUCUUCU [P30-10-h1-9]”, the binding signal amounted to 832 amol bound.

“GGGAGAAUUCCGACCAGAAGGCGCGAUUGUGGUUGUGGUGGGUGGGCGCGCCUUUCCUCUCUCCUUCCUCUUCU [P30-10-h1-2]”: the binding signal is 166 amol bound.

Consider “GGGAGAAUUCCGACCAGAAGGCGCGAUUGUGUUGUGGUGGGUGGGCGCGCCUUUCCUCUCUCCUUCCUCUUCU [P30-10-h1-8]”, for which the binding signal came to 2.87 amol bound.

Turning to “GGGAGAAUUCCGACCAGAAGGCUAUGGGUUGAGUUCUGUAUGGGUGGGUGCCUUUCCUCUCUCCUUCCUCUUCU [P30-10-h1-4]”, the binding signal was determined as 232 amol bound.

“GGGAGAAUUCCGACCAGAAGGGUCGGUGUAUAAUUGUAGUUUUGUUGUUGUUGUUGUUGUUGCCUUUCCUCUCUCCUUCCUCUUCU [P30-10-h1-10]” yielded a binding signal of 60.7 amol bound.

Consider “GGGAGAAUUCCGACCAGAAGUAGUAGCCCGGGUGUGGGUUUAUGGCCGCCCCUUUCCUCUCUCCUUCCUCUUCU [P30-10-h1-6]”, for which the binding signal stood at 34.2 amol bound.

The sequence “GGGAGAAUUCCGACCAGAAGUAGUAGCCCGGGUGUGGGUUUAUGGUCGCCCCUUUCCUCUCUCCUUCCUCUUCU [P30-10-h1-1]” returned a binding signal of 47.9 amol bound.

With “GGGAGAAUUCCGACCAGAAGUAGUAGCCCGGGUGUGGGUUUAUGGUCGUCCCUUUCCUCUCUCCUUCCUCUUCU [P30-10-h1-7]”, the binding signal stood at 17 amol bound.

The sequence “GGGAGAAUUCCGACCAGAAGUCCCCUCCCUCGUAUCGUAUGUGCGUUUGCCCUUUCCUCUCUCCUUCCUCUUCU [P30-10-h1-5]” registered a binding signal of 80.3 amol bound.

Regarding “GGGAGAAUUCCGACCAGAAGUGUCGAUGUGUAUCUUAUUUGUUUGUUUGUUUGUUUGUUUGUCCUUUCCUCUCUCCUUCCUCUUCU [P30-10-h1-3]”, the binding signal was 37.3 amol bound.
